Experimental data reported in patent US20050164906A1 (APPLIED RESEARCH SYSTEMS ARS HOLDING N V, published 2005).

Columns and labels:
[1] = target: T1, GST alone (Glutathione S-transferase, control) (UniProt P08515 1-218 = GST); experiment: GST pull-down of in vitro 35S-labeled protein
T1 construct: Control loaded on glutathione Sepharose beads; also called GST-protein alone

[2] = target: T2, GST-Raf-RBD, GST fusion protein comprising the Ras Binding Domain of human Raf (Raf-RBD, residues 1-149) (human, UniProt P04049 1-149); experiment: GST pull-down of in vitro 35S-labeled protein
T2 construct: range 1-149; Immobilised on glutathione Sepharose beads; not shown: Glutathione S-transferase (GST) encoded by the pGEX-4T2 plasmid (Pharmacia)

[3] = target: T3, N87A-GILZ, full mouse GILZ in which an Asparagine is mutated in Alanine, in vitro 35S-labeled (mouse, UniProt Q9Z2S7 1-137, [35S]-Methionine label); experiment: GST pull-down of in vitro 35S-labeled protein
T3 construct: range 1-137
T3 sequence (looked up): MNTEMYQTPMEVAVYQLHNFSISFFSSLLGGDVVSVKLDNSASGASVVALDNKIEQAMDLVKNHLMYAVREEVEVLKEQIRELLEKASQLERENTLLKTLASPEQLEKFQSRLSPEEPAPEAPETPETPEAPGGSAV

[4] = target: T4, ERK-1 in lysates of murine thymocytes (mouse, UniProt Q63844 2-380); experiment: GST pull-down from murine thymocyte lysates, Western blot with α-ERK-1/-2
T4 construct: Detected together with ERK-2 by α-ERK-1/-2 antibodies; also called ERK-1/-2
T4 sequence (Q63844 2-380 limits assumed): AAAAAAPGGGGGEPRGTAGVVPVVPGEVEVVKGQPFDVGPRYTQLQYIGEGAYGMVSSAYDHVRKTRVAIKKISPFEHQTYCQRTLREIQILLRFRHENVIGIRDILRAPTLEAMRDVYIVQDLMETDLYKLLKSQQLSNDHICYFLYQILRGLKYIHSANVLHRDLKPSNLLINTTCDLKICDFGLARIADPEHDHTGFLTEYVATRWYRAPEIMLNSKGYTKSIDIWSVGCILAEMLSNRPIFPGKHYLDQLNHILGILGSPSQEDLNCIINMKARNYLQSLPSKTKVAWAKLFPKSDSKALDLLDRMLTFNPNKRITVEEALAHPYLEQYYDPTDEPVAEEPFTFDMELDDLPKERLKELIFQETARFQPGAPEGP
Procedure: (§1) Extracts were prepared from the indicated cell, treated or untreated with DEX (10 microMolar), as previously described (Ayroldi E et al., 2001). GST or GST fusion proteins, loaded on Sepharose beads, were mixed with cell extracts in binding buffer (NaCl 250 milliMolar, HEPES (ph7.5) (pH 7.5) 50 milliMolar, EDTA 0.5 milliMolar, Nonidet P-40 0.1% (v/v), phenylmethylsulfonyl fluoride (PMSF) 0.2 milliMolar, dithiothreitol (DTT) 1 milliMolar, bovine serum albumin (BSA) 100 μg/ml), heated for 5 minutes at 42° C., incubated for 2 hours at 4° C., washed extensively with binding buffer, resuspended in loading buffer and analysed by SDS-PAGE and Western blot as described above. In the case of murine thymocytes extracts, the incubation with the beads was performed overnight and at 4° C. The α-MEK and α-ERK antibodies (Upstate Biotechnology) were used following manufacturer's instructions.

[5] = target: T5, ERK-2 in lysates of murine thymocytes (mouse, UniProt P63085 2-358); experiment: as above
T5 construct: Detected together with ERK-1 by α-ERK-1/-2 antibodies; also called ERK-1/-2
Procedure: as §1

[6] = target: T1, GST alone (Glutathione S-transferase, …); experiment: GST pull-down from thymocyte whole cell lysates, Western blot with α-GILZ
Procedure: as §1

T1 sequence (P08515 whole entry): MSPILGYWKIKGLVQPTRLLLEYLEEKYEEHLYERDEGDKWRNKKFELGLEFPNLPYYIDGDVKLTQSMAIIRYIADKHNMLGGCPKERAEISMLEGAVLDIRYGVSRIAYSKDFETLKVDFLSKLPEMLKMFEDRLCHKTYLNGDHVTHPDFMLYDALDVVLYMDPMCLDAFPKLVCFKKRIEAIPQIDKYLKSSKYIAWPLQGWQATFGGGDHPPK

B1: ΔC-GILZ, GILZ lacking the C-terminal region (first 97 amino acids of mouse GILZ), in vitro 35S-labeled (other)
chain: MNTEMYQTPMEVAVYQLHNFSTSFFSSLLGGDVVSVKLDNSASGASVVALDNKIEQAMDLVKNHLMYAVREEVEVLKEQIRELLEKNSQLERENTLL
modifications: [35S]-methionine isotopic label from in vitro translation; letters unchanged
notes: also called 35S-AC-GILZ
- binding result [1]: no binding

B2: ΔN-GILZ, GILZ lacking the N-terminal region (first 8 amino acids of mGILZ fused with the residues 73-137), in vitro 35S-labeled (other)
chain: MNTEMYQTVEVLKEQIRELLEKNSQLERENTLLKTLASPEQLEKFQSRLSPEEPAPEAPETPETPEAPGGSAV
modifications: [35S]-Methionine label ; [35S]-methionine isotopic label from in vitro translation; letters unchanged
notes: also called DN-GILZ; 35S-ΔN-GILZ
- binding result [2]: no binding

B3: Glutathione S-transferase GILZ fusion protein (GST-GILZ), containing entire mouse GILZ (other, UniProt Q9Z2S7 1-137, looked up)
chain: MNTEMYQTPMEVAVYQLHNFSISFFSSLLGGDVVSVKLDNSASGASVVALDNKIEQAMDLVKNHLMYAVREEVEVLKEQIRELLEKNSQLERENTLLKTLASPEQLEKFQSRLSPEEPAPEAPETPETPEAPGGSAV
notes: range 1-137; Immobilised on glutathione Sepharose beads; Prepared as in Ayroldi E et al., 2001; not shown: Glutathione S-transferase (GST) encoded by the pGEX-4T2 plasmid (Pharmacia)
- binding result [3]: no binding
- binding result [4]: no binding
- binding result [5]: no binding

B4: in vitro 35S-labeled full GILZ (full-length mouse GILZ, in vitro translated) (other, UniProt Q9Z2S7 1-137, looked up)
chain: MNTEMYQTPMEVAVYQLHNFSISFFSSLLGGDVVSVKLDNSASGASVVALDNKIEQAMDLVKNHLMYAVREEVEVLKEQIRELLEKNSQLERENTLLKTLASPEQLEKFQSRLSPEEPAPEAPETPETPEAPGGSAV
modifications: [35S]-Methionine label
notes: range 1-137; also called 35S-GILZ; GILZ full-length protein
- binding result [1]: no binding

B5: GILZ, endogenous, in whole cell lysates of murine thymocytes (DEX-treated or untreated) (other, mouse, UniProt Q9Z2S7 1-137, looked up)
chain: MNTEMYQTPMEVAVYQLHNFSISFFSSLLGGDVVSVKLDNSASGASVVALDNKIEQAMDLVKNHLMYAVREEVEVLKEQIRELLEKNSQLERENTLLKTLASPEQLEKFQSRLSPEEPAPEAPETPETPEAPGGSAV
notes: also called mGILZ
- binding result [6]: no binding
